Test system: Asp97
Assay: UV-vis
Conditions: 150 mM NaCl; 50 mM Tris-HCl; Dark/ground state, retinal-bound, detergent-solubilised purified protein

With “HSG119 rhodopsin (blue-light absorbing proteorhodopsin homologue) (uncultured marine bacterium (metagenome sample HSG070119-03, seawater near King Sejong Station, King George Island, Antarctica))” the pKa was “around 5.8 and 8.0”.

Reference: PMC6987182
